Data as given in article PMC9935546.

Target: T1, endogenous VDAC2 (voltage-dependent anion-selective channel protein 2) (human (endogenous in HONE1 and SUNE1)), P45880
T1 chain: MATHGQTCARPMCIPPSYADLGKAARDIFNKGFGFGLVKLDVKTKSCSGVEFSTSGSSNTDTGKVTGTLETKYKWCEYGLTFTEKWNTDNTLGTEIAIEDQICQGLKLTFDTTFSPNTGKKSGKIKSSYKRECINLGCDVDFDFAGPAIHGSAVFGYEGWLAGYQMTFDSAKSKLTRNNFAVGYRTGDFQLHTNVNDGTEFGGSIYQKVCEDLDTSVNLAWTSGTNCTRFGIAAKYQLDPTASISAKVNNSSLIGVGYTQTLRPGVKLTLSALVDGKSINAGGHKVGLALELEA
Assay: cross-linking; NPC cells in PBS with 5 mM DSS, 37 °C, 30 min, quenched with 20 mM Tris-HCl; Western blot; 24 h after IR; WT and TRIM21-KO cells
Conditions: remark: other sources report otherwise

stoichiometry N: > 3
B1: endogenous VDAC2 (voltage-dependent anion-selective channel protein 2), P45880 1-294 (natural protein)
chain: T1 chain
